The text below walks through data of patent US20070086956A1, “Method for accelerating the rate of mucociliary clearance” (BAYER AKTIENGESELLSCHAFT, priority 1998, published 2007).

“Also recorded” adds a separate entry of the source.

Assay [1] concerns ovine tracheal epithelial cells. As to the kind of experiment: Short circuit current (Isc) in cultured ovine tracheal epithelial (OTE) cells. The format is cell-based. The settings on record: 100 ug/mL; over a 90 minute period; FIG. 24. The method, then:
The aim of this study was to investigate the effect of Bikunin (1-170) (See Example 17), on Isc in OTE cells in vitro. OTE cells were seeded onto 1.2 cm diameter, 0.4 um pore size Snapwell™ inserts (Costar UK). Cells were grown to confluence and mounted in modified Ussing chambers 3-5 days after placement on air-liquid interface. Inserts were immersed in Krebs buffer (KBR) solution and bubbled with 95% O2/5% CO2 warmed to 37° C.
After a 20 minute equilibration period, transepithelial potential difference was then clamped to 0 mV using a WPI EVC 4000 voltage clamp. Ag/AgCl electrodes were used to monitor Isc. Once a stable baseline was achieved (typically 30 mins), cells were treated with amiloride (10 uM). Once a response to amiloride was obtained, it was washed out with KBR solution. After return to baseline, Bikunin (1-170) described in Example 17 (25, 50 or 100 ug/mL) or PBS was added. 90 minutes following agent treatment amiloride (10 uM) was again added.

A further assay deals with guinea pig trachea. The assay is described as follows: Tracheal mucus velocity (TMV) in the guinea-pig. The format is in vivo. The settings on record: 5 ug tracheal instillation; 1.5 to 2.5 hours following administration; FIG. 16(c). On the procedure:
The aim of this study was to investigate the effect of the Kunitz family serine protease inhibitor Bikunin on guinea-pig tracheal mucus velocity 1.5 hours post treatment. This agent was delivered into the cephalad trachea by topical instillation. TMV was monitored 1.5 hours later for 60 mins. The procedure used in this Example is described in Newton et al. in “Cila, Mucus and Mucociliary Interactions,” Ed., Baum, G. L. et al., Marcel Dekker, New York, 1998; Newton et al., Ped. Pulm. S17, Abs. 364, 1998). […]
TMV was monitored using a lead collimated miniature Beta particle detector probe arranged to detect the radioactivity emitted from an injected aliquot of ^32P-labelled Saccharomyces cerevisiae as it was transported on the tracheal mucociliary layer of an anaesthetized guinea pig (Newton and Hall 1998) FIG. 16(a) illustrates the arrangement of the syringe and beta probe. FIG. 16(b) illustrates the counts detected by the probe as the ^32P-labelled S. cerevisiae is transported along the tracheal mucociliary layer. […]
The aim of this comparative study was to investigate the effect of hypertonic saline (14.4%×5 min) on guinea-pig tracheal mucus velocity. […] TMV was monitored immediately and every 15 minutes for 30 minutes. […]

For assay [2], the system named is guinea pig tracheal epithelial cells. The assay is described as follows: Short circuit current (Isc) in cultured guinea pig tracheal epithelial (GPTE) cells. The format is cell-based. The settings on record: 50 ug/mL; over a 30 minute period; FIG. 23. The method, then: The aim of this study was to investigate the effect of Bikunin (1-170) (See Example 17) on Isc on GPTE cells in vitro. GPTE cells were seeded onto 1.2 cm diameter, 0.4 um pore size Snapwell™ inserts (Costar UK). Cells were grown to confluence and mounted in modified Ussing chambers 2-4 days after placement on air-liquid interface. Inserts were immersed in Krebs buffer (KBR) solution and bubbled with 95% O2/5% CO2 warmed to 370 C.
After a 20 minute equilibration period, transepithelial potential difference was then clamped to 0 mV using a WPI EVC 4000 voltage clamp. Ag/AgCl electrodes were used to monitor Isc. Once a stable baseline was achieved (typically 20-30 mins), cells were treated with amiloride (30 uM). Once a response to amiloride was obtained, it was washed out with KBR solution. After return to baseline and equilibration, Bikunin (1-170) described in Example 17 (10 to 50 ug/mL) or PBS was added. 30 minutes following agent treatment amiloride (30 uM) was added.

B1: CHO Bikunin (1-170): Glycosylated placental bikunin (1-170), SEQ ID NO: 52, expressed in Chinese hamster ovary cells (Example 17) (protein, listed as Homo sapiens)
chain: ADRERSIHDFCLVSKVVGRCRASMPRWWYNVTDGSCQLFVYGGCDGNSNNYLTKEECLKKCATVTENATGDLATSRNAADSSVPSAPRRQDSEDHSSDMFNYEEYCTANAVTGPCRASFPRWYFDVERNSCNNFIYGGCRGNKNSYRSEEACMLRCFRQQENPPLPLGSK
modifications: glycosylated, CHO-expressed
As to B1, the figures for the sodium current entry in assay [1] and in assay [2] were “significantly inhibited sodium current” and “inhibited sodium current”, respectively. The TMV entry with guinea pig trachea is given as “increased TMV; also recorded: sustained increase in TMV”.
